Results: the supplement of paper PMC10065799, “High-throughput profiling of sequence recognition by tyrosine kinases and SH2 domains using bacterial peptide display” (eLife, 2023)

Columns and labels:
AncSZ = assay: phosphorylation enrichment, bacterial display (enrichment ratio); higher = better substrate or ligand; peptides without Tyr show the background
EPHB1 = EPHB1 (UniProt P54762); assay: as above
EPHB2 = EPHB2 (UniProt P29323); assay: as above
FGFR1 = FGFR1 (UniProt P11362); assay: as above
FGFR1, sequence (P11362 whole entry, looked up): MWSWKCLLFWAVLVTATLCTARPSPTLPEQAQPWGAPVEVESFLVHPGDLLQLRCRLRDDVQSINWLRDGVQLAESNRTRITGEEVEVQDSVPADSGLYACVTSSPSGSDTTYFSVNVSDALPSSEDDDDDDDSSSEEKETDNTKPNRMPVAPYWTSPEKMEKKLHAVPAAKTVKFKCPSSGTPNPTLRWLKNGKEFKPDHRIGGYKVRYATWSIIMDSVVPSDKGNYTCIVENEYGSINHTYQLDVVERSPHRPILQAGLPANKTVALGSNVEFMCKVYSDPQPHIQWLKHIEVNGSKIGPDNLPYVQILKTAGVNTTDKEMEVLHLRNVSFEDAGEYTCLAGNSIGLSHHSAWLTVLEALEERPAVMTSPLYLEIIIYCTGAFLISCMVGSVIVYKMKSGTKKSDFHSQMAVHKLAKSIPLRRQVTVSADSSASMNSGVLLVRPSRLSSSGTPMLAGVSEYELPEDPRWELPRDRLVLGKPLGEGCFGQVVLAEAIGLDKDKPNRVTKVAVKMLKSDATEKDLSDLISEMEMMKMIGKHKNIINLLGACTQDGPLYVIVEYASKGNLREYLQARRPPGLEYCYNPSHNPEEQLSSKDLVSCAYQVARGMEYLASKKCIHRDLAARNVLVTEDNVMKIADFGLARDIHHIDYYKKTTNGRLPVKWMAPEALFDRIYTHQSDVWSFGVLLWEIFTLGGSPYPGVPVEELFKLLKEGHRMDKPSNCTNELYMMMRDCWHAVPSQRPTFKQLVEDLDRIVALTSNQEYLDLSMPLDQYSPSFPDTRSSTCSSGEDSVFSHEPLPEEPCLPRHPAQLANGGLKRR

FGFR3 = FGFR3 (UniProt P22607); assay: as above
FGFR3, sequence (P22607 whole entry, looked up): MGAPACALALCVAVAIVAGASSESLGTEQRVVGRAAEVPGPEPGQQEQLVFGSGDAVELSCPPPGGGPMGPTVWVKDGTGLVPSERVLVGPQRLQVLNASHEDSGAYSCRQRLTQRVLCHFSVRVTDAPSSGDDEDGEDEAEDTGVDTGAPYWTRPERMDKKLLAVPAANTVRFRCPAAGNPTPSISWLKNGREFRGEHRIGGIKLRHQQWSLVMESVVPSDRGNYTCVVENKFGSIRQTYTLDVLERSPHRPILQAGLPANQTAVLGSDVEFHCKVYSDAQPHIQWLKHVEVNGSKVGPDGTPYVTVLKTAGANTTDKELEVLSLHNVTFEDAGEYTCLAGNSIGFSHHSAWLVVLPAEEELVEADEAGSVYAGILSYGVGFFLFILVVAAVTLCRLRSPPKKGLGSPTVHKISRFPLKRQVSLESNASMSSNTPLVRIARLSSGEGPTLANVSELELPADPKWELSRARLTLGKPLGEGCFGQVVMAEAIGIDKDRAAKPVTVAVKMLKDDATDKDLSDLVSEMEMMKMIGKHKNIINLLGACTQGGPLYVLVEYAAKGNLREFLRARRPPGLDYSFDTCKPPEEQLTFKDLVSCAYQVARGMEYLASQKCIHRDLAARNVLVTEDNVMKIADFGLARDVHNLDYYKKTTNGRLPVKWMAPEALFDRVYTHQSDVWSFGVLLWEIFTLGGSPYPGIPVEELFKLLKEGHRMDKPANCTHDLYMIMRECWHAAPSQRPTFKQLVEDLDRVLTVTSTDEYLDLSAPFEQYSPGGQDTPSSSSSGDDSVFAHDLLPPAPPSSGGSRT

Fer (mouse) = assay: as above
Fes = Fes (UniProt P07332); assay: as above
Fyn = Fyn (UniProt P06241); assay: as above
Hck = Hck (UniProt P08631); assay: as above
Hck, sequence (P08631 whole entry, looked up): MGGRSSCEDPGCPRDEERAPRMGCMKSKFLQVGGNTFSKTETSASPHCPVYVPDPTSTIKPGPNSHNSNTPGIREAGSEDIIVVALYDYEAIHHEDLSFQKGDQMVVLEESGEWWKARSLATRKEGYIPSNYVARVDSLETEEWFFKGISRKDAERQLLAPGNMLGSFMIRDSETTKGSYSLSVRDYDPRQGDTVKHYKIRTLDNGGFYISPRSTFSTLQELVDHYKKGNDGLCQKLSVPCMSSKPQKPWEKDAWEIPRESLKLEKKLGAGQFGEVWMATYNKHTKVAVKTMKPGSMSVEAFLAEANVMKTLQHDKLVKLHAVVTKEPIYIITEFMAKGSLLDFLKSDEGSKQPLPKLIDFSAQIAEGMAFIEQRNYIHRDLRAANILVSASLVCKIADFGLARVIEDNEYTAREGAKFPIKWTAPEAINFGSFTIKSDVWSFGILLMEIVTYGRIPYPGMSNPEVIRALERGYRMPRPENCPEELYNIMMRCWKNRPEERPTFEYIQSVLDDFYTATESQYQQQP

Jak2 = Jak2 (UniProt O60674); assay: as above
Jak2, sequence (O60674 whole entry, looked up): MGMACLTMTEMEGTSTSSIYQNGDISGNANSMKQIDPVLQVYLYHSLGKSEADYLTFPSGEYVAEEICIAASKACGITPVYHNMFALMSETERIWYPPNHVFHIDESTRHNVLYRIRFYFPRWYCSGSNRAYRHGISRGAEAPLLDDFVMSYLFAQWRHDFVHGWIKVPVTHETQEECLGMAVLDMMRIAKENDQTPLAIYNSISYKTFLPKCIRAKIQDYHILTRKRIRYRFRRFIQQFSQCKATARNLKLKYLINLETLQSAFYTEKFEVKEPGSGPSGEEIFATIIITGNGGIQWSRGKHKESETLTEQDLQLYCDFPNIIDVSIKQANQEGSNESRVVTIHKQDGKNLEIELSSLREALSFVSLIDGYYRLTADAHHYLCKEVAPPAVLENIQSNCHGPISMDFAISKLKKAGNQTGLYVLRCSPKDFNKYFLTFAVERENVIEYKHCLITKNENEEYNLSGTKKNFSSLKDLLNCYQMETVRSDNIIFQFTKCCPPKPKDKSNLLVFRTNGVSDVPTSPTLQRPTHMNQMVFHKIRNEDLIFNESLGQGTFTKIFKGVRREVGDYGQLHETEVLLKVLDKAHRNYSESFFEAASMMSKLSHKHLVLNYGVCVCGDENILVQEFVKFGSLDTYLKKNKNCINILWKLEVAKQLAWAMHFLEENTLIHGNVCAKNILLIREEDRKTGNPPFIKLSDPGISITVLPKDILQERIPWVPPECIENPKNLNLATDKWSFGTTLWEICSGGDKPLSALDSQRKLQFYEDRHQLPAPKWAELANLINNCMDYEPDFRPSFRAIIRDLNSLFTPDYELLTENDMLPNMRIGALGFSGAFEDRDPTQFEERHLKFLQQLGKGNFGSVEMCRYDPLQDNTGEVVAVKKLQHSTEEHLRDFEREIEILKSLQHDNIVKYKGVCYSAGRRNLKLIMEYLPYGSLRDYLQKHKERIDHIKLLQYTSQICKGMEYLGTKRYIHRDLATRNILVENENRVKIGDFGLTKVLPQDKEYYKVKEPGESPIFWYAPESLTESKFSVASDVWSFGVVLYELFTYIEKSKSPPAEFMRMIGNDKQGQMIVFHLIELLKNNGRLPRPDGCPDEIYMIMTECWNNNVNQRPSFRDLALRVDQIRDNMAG

MERTK = MERTK (UniProt Q12866); assay: as above
c-Abl (mouse) = assay: as above
c-Src = assay: as above
Grb2 SH2 = Grb2 SH2 (UniProt P62993); assay: SH2 binding enrichment of the phosphorylated peptide, bacterial display (enrichment ratio); higher = better substrate or ligand; peptides without Tyr show the background
Grb2 SH2, sequence (P62993 whole entry, looked up): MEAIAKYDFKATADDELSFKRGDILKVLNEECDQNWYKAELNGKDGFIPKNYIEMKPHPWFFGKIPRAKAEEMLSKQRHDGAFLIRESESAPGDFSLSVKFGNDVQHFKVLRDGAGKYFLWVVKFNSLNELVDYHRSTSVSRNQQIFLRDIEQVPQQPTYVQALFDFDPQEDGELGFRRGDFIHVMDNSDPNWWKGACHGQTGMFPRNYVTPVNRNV

SHP2-C SH2 = assay: as above
c-Src SH2 = assay: as above
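Throughout, for SH2 binding enrichment of the phosphorylated peptide, bacterial display: peptide library displayed on the E. coli surface as eCPX fusions, selected cells deep-sequenced, score is each peptide's frequency after selection divided by its frequency in the input.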
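Throughout, for phosphorylation enrichment, bacterial display: 11-residue human phosphosite peptides and single-mutation variants displayed on the E. coli surface, counted by deep sequencing, each peptide's frequency after selection divided by its frequency in the unselected input library; frequency after pTyr selection over input frequency; kinase dosed for 20-30% of maximal phosphorylation in three min.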

EPHB2, sequence (P29323 whole entry, looked up): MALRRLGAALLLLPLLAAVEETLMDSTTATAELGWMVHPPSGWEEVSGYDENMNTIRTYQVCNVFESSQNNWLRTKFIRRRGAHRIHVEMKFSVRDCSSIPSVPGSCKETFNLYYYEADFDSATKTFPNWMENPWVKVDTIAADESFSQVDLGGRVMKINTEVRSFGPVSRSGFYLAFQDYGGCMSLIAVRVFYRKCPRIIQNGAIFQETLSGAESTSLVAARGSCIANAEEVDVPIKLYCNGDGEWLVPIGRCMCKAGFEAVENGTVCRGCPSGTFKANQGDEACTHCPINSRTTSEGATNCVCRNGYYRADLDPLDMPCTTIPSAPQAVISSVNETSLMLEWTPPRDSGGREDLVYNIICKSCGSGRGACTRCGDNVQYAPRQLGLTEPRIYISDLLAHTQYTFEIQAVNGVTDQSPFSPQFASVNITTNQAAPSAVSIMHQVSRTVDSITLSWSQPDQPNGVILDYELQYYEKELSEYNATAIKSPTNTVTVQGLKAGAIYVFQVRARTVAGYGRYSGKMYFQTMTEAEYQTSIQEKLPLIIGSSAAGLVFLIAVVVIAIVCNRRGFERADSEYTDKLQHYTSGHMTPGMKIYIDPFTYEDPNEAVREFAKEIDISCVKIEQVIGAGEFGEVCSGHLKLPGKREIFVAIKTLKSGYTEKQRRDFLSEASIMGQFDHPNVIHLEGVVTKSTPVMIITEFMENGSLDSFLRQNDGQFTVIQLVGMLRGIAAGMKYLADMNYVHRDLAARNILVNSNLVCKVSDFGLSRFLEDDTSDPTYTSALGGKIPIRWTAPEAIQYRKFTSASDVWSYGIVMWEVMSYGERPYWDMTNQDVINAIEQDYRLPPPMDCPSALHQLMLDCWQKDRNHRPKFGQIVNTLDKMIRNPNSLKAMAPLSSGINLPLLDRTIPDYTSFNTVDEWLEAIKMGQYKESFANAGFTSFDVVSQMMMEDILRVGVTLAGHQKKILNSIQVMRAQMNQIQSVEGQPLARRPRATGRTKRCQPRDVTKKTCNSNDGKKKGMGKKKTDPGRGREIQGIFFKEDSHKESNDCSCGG

Sequence	phosphorylation enrichment (AncSZ)	phosphorylation enrichment (EPHB1)	phosphorylation enrichment (EPHB2)	phosphorylation enrichment (FGFR1)	phosphorylation enrichment (FGFR3)	phosphorylation enrichment (Fer (mouse))	phosphorylation enrichment (Fes)	phosphorylation enrichment (Fyn)	phosphorylation enrichment (Hck)	phosphorylation enrichment (Jak2)	phosphorylation enrichment (MERTK)	phosphorylation enrichment (c-Abl (mouse))	phosphorylation enrichment (c-Src)	SH2 binding enrichment (Grb2 SH2)	SH2 binding enrichment (SHP2-C SH2)	SH2 binding enrichment (c-Src SH2)
CTSIHYNFMCN [TP53_Y234_T231S_YF]	0.848	0.54	0.502	0.488	0.571	0.519	0.918	0.516	0.473	1	0.366	0.694	0.447	1.57	1.59	2.05
CTTIHCNFMCN [TP53_Y234_Y234C_YF]	0.782	0.67	0.546	0.45	0.574	0.454	0.869	0.419	0.446	0.862	0.441	0.629	0.441	1.22	0.889	0.837
CTTIHFNYMCN [TP53_Y234_Y234F]	0.68	0.488	0.501	0.534	0.553	0.572	0.74	0.432	0.427	0.628	0.397	0.458	0.519	1.83	2.05	1.72
CTTIHYNFMCK [TP53_Y234_N239K_YF]	0.659	0.403	0.387	0.418	0.489	0.351	0.816	0.476	0.533	0.631	0.407	0.562	0.413	1.4	2.05	1.68
CTTIYYNYMCN [TP53_Y234_H233Y]	1.54	4.95	4.3	12.1	9.96	2.86	1.03	8.51	6.93	5.1	7.86	6.37	6.51	3.51	2.23	3.1
CVRTIYTIDGS [DCLK2_Y124_G119C]	0.891	0.746	0.628	0.447	1	0.505	1.06	1.32	0.683	0.807	0.481	0.799	1.97	0.702	0.432	0.529
DAANNYARGHF [TUBA3E_Y103_S101N_YF]	0.698	0.382	0.626	0.422	0.403	0.431	0.652	0.425	0.426	0.391	0.544	1.06	0.468	0.665	0.823	0.531
DAICFYRMENA [NPHS2_Y195_YF]	1.14	0.645	0.544	0.624	0.85	0.592	1.47	0.726	0.624	1.19	0.482	0.914	2.96	0.785	0.805	0.56
DAVCFYRMENA [NPHS2_Y195_I192V_YF]	1.21	0.698	0.685	0.698	1.06	0.614	1.23	0.986	0.788	1.22	0.695	0.882	3.07	0.714	0.674	0.437
DDHFTYSRFPW [LY75_Y888_YF]	1.16	4.84	5.18	0.905	0.797	0.609	1.07	4.83	6.66	1.28	3.18	1.66	4.98	0.833	0.64	0.418
DEEFEYMNRRR [ERBB3_Y1199_YF]	1.3	0.481	0.66	0.591	0.612	0.474	1.18	0.643	0.497	1.01	0.597	0.688	0.564	0.842	0.799	0.521
DFEGLYQEGGG [TMEM159_Y159_E154D]	1.23	0.746	0.791	0.761	0.817	0.64	1.17	0.874	1.22	0.88	0.453	0.569	0.923	0.67	0.461	0.453
DGTVHYVDEKG [IFT140_Y216]	1.02	0.666	0.682	0.592	0.83	0.593	1.23	0.671	0.586	0.832	0.443	0.653	0.376	0.64	0.544	0.381
DHAGEYGAEAL [HBA1_Y25_A20D]	0.86	0.426	0.569	0.509	0.621	0.403	0.892	0.427	0.495	0.675	0.343	0.546	0.405	0.825	1.11	0.506
DHPSEYAARQL [ANXA13_Y90_R86H]	0.657	0.352	0.494	0.496	0.445	0.365	0.633	0.454	0.525	0.576	0.453	0.66	0.482	0.826	0.657	0.483
DKATEYIQFMR [MAX_Y70_YF]	1	0.528	0.549	0.589	0.655	0.439	1.01	0.675	0.69	0.793	0.439	0.803	0.703	0.887	0.608	0.565
